Experimental data reported in PMC3726683, “Autophagy Activation Clears ELAVL1/HuR-Mediated Accumulation of SQSTM1/p62 during Proteasomal Inhibition in Human Retinal Pigment Epithelial Cells”.

How the values were obtained:
ELAVL1/HuR (rHuR) [1] = biological target: T1, ELAVL1/HuR (rHuR) (human, UniProt Q15717 1-326); assay: AlphaScreen saturation binding; RNA titrated against 1 nM HuR; R2 0.91; Methods print 0.207±0.024 without unit; 25 mM HEPES pH 7.4, 100 mM NaCl, 0.1% BSA, room temperature, 30 min then 90 min with donor beads; conditions: protein: recombinant; tags: C-terminal Myc-His (vector section) or MYC/DDK (assay section, TP301562); label: biotin (BITEG); single strand
ELAVL1/HuR (rHuR) [2] = biological target: T1, ELAVL1/HuR (rHuR); assay: AlphaScreen saturation binding; RNA titrated against 1 nM HuR; R2 0.97; Methods print 0.087±0.021 without unit; 25 mM HEPES pH 7.4, 100 mM NaCl, 0.1% BSA, room temperature, 30 min then 90 min with donor beads; conditions: protein: recombinant; tags: C-terminal Myc-His (vector section) or MYC/DDK (assay section, TP301562); label: biotin (BITEG); single strand

T1 sequence (Q15717 whole entry): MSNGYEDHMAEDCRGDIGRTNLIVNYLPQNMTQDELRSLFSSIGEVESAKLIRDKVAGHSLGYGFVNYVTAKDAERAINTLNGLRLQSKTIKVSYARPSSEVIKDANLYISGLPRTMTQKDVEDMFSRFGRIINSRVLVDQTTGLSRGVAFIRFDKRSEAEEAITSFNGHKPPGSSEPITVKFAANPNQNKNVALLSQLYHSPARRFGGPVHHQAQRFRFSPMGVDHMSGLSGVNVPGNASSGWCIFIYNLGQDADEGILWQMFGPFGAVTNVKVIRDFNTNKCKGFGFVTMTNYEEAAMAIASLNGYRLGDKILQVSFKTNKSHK

| Binder | Kd (ELAVL1/HuR (rHuR) [1]) [nM] | Kd (ELAVL1/HuR (rHuR) [2]) [nM] |
| --- | --- | --- |
| GUUUUAAAUGACUCAUAGGUCCCUGACAUUUAGUUGAUU (ssRNA) [SQSTM1/p62 ARE probe] | 30.9 ± 13.2 |  |
| AUUAUUUAUUAUUUAUUUAUUAUUUA (ssRNA) [TNFalpha ARE probe] |  | 3.83 ± 0.69 |
